# Assay results published in patent publication US20250382376A1 (FUDAN UNIVERSITY, published 2025).
# T1: extracellular domain of human CD73 protein, C-terminus polyhistidine-tagged (human, UniProt P21589 27-547)
# T1 construct: also the immunogen; also called CD73-ECD; human CD73-ECD
# T1 sequence: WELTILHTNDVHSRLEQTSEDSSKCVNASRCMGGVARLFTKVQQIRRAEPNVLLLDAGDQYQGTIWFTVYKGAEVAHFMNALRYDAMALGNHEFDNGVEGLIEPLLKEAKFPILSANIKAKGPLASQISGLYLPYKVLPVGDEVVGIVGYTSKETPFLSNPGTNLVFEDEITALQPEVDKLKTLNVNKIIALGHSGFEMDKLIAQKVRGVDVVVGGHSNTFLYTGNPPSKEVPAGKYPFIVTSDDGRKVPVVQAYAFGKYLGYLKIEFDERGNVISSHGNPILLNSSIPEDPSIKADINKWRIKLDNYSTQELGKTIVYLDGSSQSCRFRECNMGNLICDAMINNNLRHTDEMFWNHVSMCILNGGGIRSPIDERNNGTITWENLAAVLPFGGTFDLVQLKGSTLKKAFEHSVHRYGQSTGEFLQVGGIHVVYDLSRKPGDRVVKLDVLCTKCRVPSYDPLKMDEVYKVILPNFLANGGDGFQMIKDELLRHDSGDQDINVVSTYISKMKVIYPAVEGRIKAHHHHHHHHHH
# Assays:
# [1] = biological target: T1, extracellular domain of human CD73 …; test: ELISA on CD73-ECD, 20 µL supernatant of antibody expression, second of two readings; PBS 0.19, 0.18
# Procedure: (§1) The CD73 protein extracellular region (CD73-ECD) was diluted to 1 μg/mL using the coating solution, and an ELISA plate was coated at 100 μL/well at 4° C. overnight. Excess antigens were washed away, and the plate was blocked with 1% BSA at room temperature for 2 hours. Then, 5-fold gradient dilutions of each monoclonal antibody were added at 100 μL/well and incubated at room temperature for 1 hour. Unbound antibodies were washed away, and an appropriate concentration of Staphylococcal protein A labeled with horseradish peroxidase was added at 100 μL/well and incubated at room temperature for 0.5 hours. Unbound secondary antibodies were washed away, and TMB color development solution was added to react for about 15 minutes. 1M HCL was added at 50 µL/well to terminate the color development reaction, and then the absorbance was measured at 450 nm and the data was analyzed.
# (§2) CD73 antigen ELISA binding affinity test was performed according to the method of Example 3.
# [2] = biological target: T1, extracellular domain of human CD73 …; test: ELISA on coated human CD73-ECD (the text rounds this value to 0.05 µg/mL)
# Procedure: as §1
# (§3) Based on the above mutants, 5-E11ASCS was designed and prepared, and the CD73 antigen ELISA binding affinity test was performed according to the method of Example 3.
# [3] = biological target: T1, extracellular domain of human CD73 …; test: ELISA, coated CD73-ECD, method of Example 3
# Procedure: as §1, §3
# [4] = biological target: T1, extracellular domain of human CD73 …; test: ELISA on CD73-ECD, 4 µL supernatant of antibody expression, second of two readings; PBS 0.19, 0.18
# [5] = biological target: T1, extracellular domain of human CD73 …; test: ELISA on CD73-ECD, 20 µL supernatant of antibody expression, first of two readings; PBS 0.19, 0.18
# Procedure: as §1, §2
# [6] = biological target: T1, extracellular domain of human CD73 …; test: ELISA on CD73-ECD, 0.8 µL supernatant of antibody expression, second of two readings; PBS 0.19, 0.18
# Procedure: as §1, §2
# [7] = biological target: T1, extracellular domain of human CD73 …; test: ELISA on CD73-ECD, 0.8 µL supernatant of antibody expression, first of two readings; PBS 0.19, 0.18
# Procedure: as §1, §2
# [8] = biological target: T1, extracellular domain of human CD73 …; test: SPR as the filing names it (method of Example 2, ForteBio OCTET R2)
# Procedure: Surface plasmon resonance (SPR) assay: Protein A sensor was used to immobilize the antibodies, with an immobilization height of about 1.5 nM. […] Affinity detection: equilibrium for 60 s, binding for 180 s, dissociation for 180 s, at a detection temperature of 25° C. Kinetic characterization analysis was performed using the ForteBio OCTET R2 system.
# The affinity of the humanized antibody to the antigen was detected by the surface plasmon resonance (SPR) assay method in Example 2.
# [9] = biological target: T1, extracellular domain of human CD73 …; test: ForteBio Octet (the filing calls it SPR), by the method of Example 2 according to the text; sheet prints 'Loading Sample ID: FDYKSD-02-His'; traces labelled 25, 12.5, 6.25, 3.13
ELISA reading (not named on the sheet) [1],EC50 [2],EC50 [3],ELISA reading (not named on the sheet) [4],ELISA reading (not named on the sheet) [5],ELISA reading (not named on the sheet) [6],ELISA reading (not named on the sheet) [7],Kd [8],koff [9],kon [9],Binder
4.32,0.0536 µg/mL,0.05 µg/mL,4.17,4.19,4.16,4.18,–,–,–,"chimeric nanobody 5-E11 (Fc fusion, Human-alpaca chimeric antibody (VHH on hIgG1 Fc); Only the VHH is tied to the tested molecule; also called original antibody 5-E11) VHH: ALQLVESGGGLVQPGGSLRLSCEVSGFTLDYYNIGWFRQAPGKEREGVSCSSNSGGSTYYADSVKGRFTISRDNAKNTVYLQMNSLKPEDTGVYYCAAYRGWHPSLDARVYDYWGQGTEVTVSS"
–,–,–,–,–,–,–,0.472 nM,0.000588 s⁻¹,1.25e+06 M⁻¹ s⁻¹,"chimeric nanobody 3-D7 (Fc fusion, Human-alpaca chimeric antibody (VHH on hIgG1 Fc); Only the VHH is tied to the tested molecule; 37-39 exist for 3-D7-FC1/FC2/FC3; also called original antibody 3-D7) VHH: QRQLVESGGGLVQPGGSLRLSCAASGFLLDYYVIGWFRQAPGKEREGVSCISGSDRSTYYADSVKGRFTISRDNAKNTVYLQMNSLKPEDTAVYFCAADPSPVTVQAMCLPRFPVPYWGQGTQVTVST"
